Molecular target: T1, hiR2-FL-K536-T7 (deletion of K536) (human, UniProt Q6PJF5 1-856)
T1 construct: single amino acid deletion
T1 sequence: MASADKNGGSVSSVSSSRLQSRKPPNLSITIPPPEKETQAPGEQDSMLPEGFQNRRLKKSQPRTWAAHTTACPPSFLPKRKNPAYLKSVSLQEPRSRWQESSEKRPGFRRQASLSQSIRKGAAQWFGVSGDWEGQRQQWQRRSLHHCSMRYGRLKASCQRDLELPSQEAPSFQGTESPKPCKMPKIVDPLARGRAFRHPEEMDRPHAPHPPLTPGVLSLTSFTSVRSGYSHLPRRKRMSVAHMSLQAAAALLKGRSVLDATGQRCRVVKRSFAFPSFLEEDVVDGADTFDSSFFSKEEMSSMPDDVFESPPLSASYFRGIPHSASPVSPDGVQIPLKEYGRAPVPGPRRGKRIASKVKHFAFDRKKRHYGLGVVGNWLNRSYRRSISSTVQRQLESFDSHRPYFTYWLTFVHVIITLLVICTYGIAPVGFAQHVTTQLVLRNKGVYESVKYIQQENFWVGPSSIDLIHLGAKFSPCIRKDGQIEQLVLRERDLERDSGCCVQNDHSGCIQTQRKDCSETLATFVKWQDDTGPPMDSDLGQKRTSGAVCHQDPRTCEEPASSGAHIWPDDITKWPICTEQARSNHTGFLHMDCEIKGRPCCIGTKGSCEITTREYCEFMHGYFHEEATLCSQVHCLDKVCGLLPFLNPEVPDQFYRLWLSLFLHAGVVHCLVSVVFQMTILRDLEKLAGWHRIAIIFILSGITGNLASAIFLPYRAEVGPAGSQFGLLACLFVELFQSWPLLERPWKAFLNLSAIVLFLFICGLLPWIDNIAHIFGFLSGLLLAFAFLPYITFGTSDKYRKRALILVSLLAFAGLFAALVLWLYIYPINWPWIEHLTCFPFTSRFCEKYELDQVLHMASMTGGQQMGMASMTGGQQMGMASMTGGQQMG
Assay: FACS, MEF-DKO cells, 3 µg/ml

B1: antibody 16 (antibody, V domains shown)
VH: QVTLKESGPGILQPSQTLSLTCSFSGFSLSTFALGVGWIRQPSGRGLEWLAHIWWDDDKYYNPALKSRLTISKDTSKNHVFLKIANVDTADTATYYCARITTYYYGMDYWGQGTSVTVSS
VL: DIVLSQSPATLSVTPGDSVSLFCRASQSIGNHLHWYQQESHASPRLLIKYASQSISGIPSRFSGSGSGTDFTLSINSVETEDFGMYFCQQSYNWPLTFGAGTKLELK
notes: mouse IgG, kappa light chain; also called clone #16; purified antibody 16
loss of binding vs wild type: ≥ 95%

B2: antibody 5 (antibody, V domains shown)
VH: QVTLKESGPGILQPSQTLSLTCSFSGFSLSTFGMGVGWIRQPSGKGLEWLAHIWWDDEKYYNSALKSRLTISKATSKNQAFLKIANVDTADTATYYCARISNYGSNYWYFNVWGTGTTVTVSS
VL: QVVLTQSPALMSASPGEKVTMTCSAGSSVSCMYWYQQKPGSSPRVLIYDTSNLASGVPARFTGSGSGTSYSLTISRMEAEDAASYYCQQWNSYPLTFGAGTKLELK
notes: mouse IgG, kappa light chain; also called clone #5; purified antibody 5
loss of binding vs wild type: ≥ 95%

B3: antibody 22 (antibody, V domains shown)
VH: QVTLKESGPGILQPSQTLSLTCSFSGFSLSTFGMGVGWIRQPSGKGLEWLAHIWWDDEKYYNSALKSRLTISKATSKNQVFLKIANVDTADTATYYCARISNYGSNYWYFNVWGTGTTVTVSS
VL: QVVLTQSPALMSASPGEKVTMTCSAGSSVSYMYWYQQKPGSSPRVLIYDTSNLASGVPARFTGSGSGTSYSLTISRMEAEDAATYYCQQWNSYPLTFGAGTKLELK
notes: mouse IgG, kappa light chain; also called clone #22; purified antibody 22
loss of binding vs wild type: ≥ 95%

B4: antibody 42 (antibody, V domains shown)
VH: QVTLKESGPGILQPSQTLSLTCSLSGFSLSTFGRGVGWIRQPSGKGLEWLAHIWWDDEKYYNPALKSRLTISKDTSKNQVFLRIANVDTADTATYYCARIQNYGSNYWYFDVWGTGTTVTVSS
VL: LIVLTQSPAIMSASPGEKVTMTCGATSRISYMFWYQQKPGSSPRVLIYDTSNLASGVPVRFSGSGSGTSYSLTISRVEAEDVATYYCQQWNSYPLTFGAGTKLELK
notes: mouse IgG, kappa light chain; also called clone #42; purified antibody 42
loss of binding vs wild type: ≥ 95%

B5: antibody 3 (antibody, V domains shown)
VH: QVTLKESGPGILQPSQTLSLTCSFSGFSLTTFAMGIGWVRQPSGKGLEWLAHIWWDGEKYNNPVLKSRLTISKDTSKNQVFLRIANVDTPDTATYYCARISSIYYIIDNWGQGTSVTVSS
VL: DIVLTQSPATLSVTPGHSVSLSCRASQSISNNLHWYQKKSHESPRLLIKYVSQSISGIPSRFSGSGSGTDFTLSINSVETEDFGMYFCQQSYNWPLTFGAGTKLELK
notes: mouse IgG, kappa light chain; also called clone #3; purified antibody 3
loss of binding vs wild type: ≥ 95%

B6: antibody 34 (antibody, V domains shown)
VH: QVTLKESGPGILQPSQTLSLTCSFSGFSLSTFSLGVGWIRQSSGKGLEWLAHIWWDDEKYYNPALKSRLTISKDTSKNQVFLKIANVDAADTATYYCARAYYSKSYYALDYWGQGTSVTVSS
VL: DIQMTQSPSSLSASLGERVSLTCRASQEISGYLSWLQQKPDGTIKRLIYAASTLDSGVPKRFSGSRSGSDYSLAISSLESEDFADYYCLQYANFPFTFGSGTKLEIK
notes: mouse IgG, kappa light chain; also called clone #34; purified antibody 34
loss of binding vs wild type: ≥ 95%

B7: antibody 43 (antibody, V domains shown)
VH: QVALKESGPGILQPSQTLSLTCSFSGFSLSTFGMGVGWIRQSSGKGLEWLANIWWDDDKYYNPALKSRLTISKDASKNQAFLKIANVDTADTATYYCARIGNYGSNYWYFDVWGTGTTVTVSS
VL: QIVLTQSPAIMSASPGERVTMTCSANSRISYMYWYQQKPGSSPRLLIYDTSNLASGVPVRFSGSGSGTSYSLTISRMEAEDAATYNCQQWSSYPLTFGAGTKLELK
notes: mouse IgG, kappa light chain; also called clone #43; purified antibody 43
loss of binding vs wild type: ≥ 95%

B8: antibody 44 (antibody, V domains shown)
VH: QVTLKESGPGILQPSQTLSLTCSFSGFSLSTFGMGVGWIRQPSEKGLEWLAHIWWDDDKYYNPALKSRLTISKDTSKNQIFLKITNVDTAETATYYCSRIGNYGSNYWYFDVWGTGTTVTVSS
VL: QIVLTQSPAVMSASPGEKVTMTCTASSSVYYMYWYQQTPGSSPRLLIYDTSNLASGVPVRFSGSGSGTSYSLTISRMEAEDAATYYCQQWNTYPLTFGAGTKLELK
notes: mouse IgG, kappa light chain; also called clone #44; purified antibody 44
loss of binding vs wild type: ≥ 95%
